Where “and” joins values, the source holds several entries; their conditions need not be identical. Equal entries are not always repeated.

Assay [1] deals with T1, derCD23 (human).
T1 construct: human CD23 (FcεRII), soluble monomeric fragment called derCD23; also called soluble, monomeric CD23 construct; soluble fragment of CD23
T1 sequence (P06734 whole entry, looked up): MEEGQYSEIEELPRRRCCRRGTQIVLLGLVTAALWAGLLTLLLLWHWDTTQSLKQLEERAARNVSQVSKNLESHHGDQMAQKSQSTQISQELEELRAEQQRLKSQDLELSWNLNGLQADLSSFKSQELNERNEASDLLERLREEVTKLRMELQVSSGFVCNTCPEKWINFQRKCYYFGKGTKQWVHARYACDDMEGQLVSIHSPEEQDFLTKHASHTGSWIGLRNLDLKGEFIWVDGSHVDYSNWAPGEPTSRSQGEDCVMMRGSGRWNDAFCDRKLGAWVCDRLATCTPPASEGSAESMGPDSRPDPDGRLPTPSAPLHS
Nature of the assay: SPR; N-terminally His-tagged IgE-Fc captured with an anti-His-tag antibody (Biacore His Capture Kit); derCD23 injected at 10 to 0.156 uM; HBS-P with 5 mM CaCl2, 25 °C. As to conditions: both partners purified.

Assay [2] concerns the target T2, 8D6 Fab.
T2 construct: In SPR it was amine-coupled to a CM5 chip or injected as analyte; also called recombinant 8D6 Fab; anti-IgE antibody Fab (8D6)
Put plainly: SPR; Biacore T200; 8D6 Fab amine-coupled to a CM5 chip; His-tagged IgE-Fc injected at 100 nM to 190 pM (2-fold dilutions) in HBS-P (10 mM HEPES pH 7.4, 150 mM NaCl, 0.005% surfactant P20), 30 uL/min; constants from low and intermediate concentrations. As to conditions: both partners purified.

T2 sequence (heavy, as listed by the source, chain 1 of 2): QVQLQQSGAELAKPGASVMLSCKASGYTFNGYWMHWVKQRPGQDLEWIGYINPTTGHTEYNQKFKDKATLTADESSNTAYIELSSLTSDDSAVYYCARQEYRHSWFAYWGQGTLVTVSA
T2 sequence (light, as listed by the source, chain 2 of 2): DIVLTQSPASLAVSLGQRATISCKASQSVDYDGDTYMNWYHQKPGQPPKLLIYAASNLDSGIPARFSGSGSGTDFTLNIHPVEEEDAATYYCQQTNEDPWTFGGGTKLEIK

B1: His-tagged IgE-Fc (domain or fragment)
chain: VASRDFTPPTVKILQSSCDGGGHFPPTIQLLCLVSGYTPGTIQITWLEDGQVMDVDLSTASTTQEGELASTQSELTLSQKHWLSDRTYTCQVTYQGHTFEDSTKKCADSNPRGVSAYLSRPSPFDLFIRKSPTITCLVVDLAPSKGTVQLTWSRASGKPVNHSTRKEEKQRNGTLTVTSTLPVGTRDWIEGETYQCRVTHPHLPRALMRSTTKTSGPRAAPEVYAFATPEWPGSRDKRTLACLIQNFMPEDISVQWLHNEVQLPDARHSTTQPRKTKGSGFFVFSRLEVTRAEWEQKDEFICRAVHEAASPSQTVQRAVSVNPGK
modifications: disulfide-linked homodimer; N-glycosylated at Asn394 (high-mannose); N-terminal 6xHis/Xpress tag omitted; C225A, N265Q and N371Q taken as already in the deposited entity; C-terminal end taken from …
Consider B1, for which, in assay [1], the equilibrium dissociation constant (Kd) is 1800 nM and 1700 nM and 1600 nM. Further, in assay [2], the Kd was about 0.02 nM, the koff was 8e-05 s⁻¹ and the kon was 5e+06 M⁻¹ s⁻¹.

The values are drawn from publication PMC6070508, “Structural basis for selective inhibition of immunoglobulin E-receptor interactions by an anti-IgE antibody” (Scientific Reports, 2018).
